± gives the standard deviation of the averaged measurements.
Key:
MCF7 = assay: percentage of EdU-negative (G0-arrested) nuclei per well, 72 h; higher = more G0 arrest; details: reference: sequence is the full UniProt precursor, the tested protein was the secreted form or ectodomain
hTERT-HMEC = assay: as above; details: reference: sequence is the full UniProt precursor, the tested protein was the secreted form or ectodomain
[1] = protein concentration 0.0357143 µM
[2] = protein concentration 0.357143 µM
[3] = protein concentration 0.0225 µM
[4] = protein concentration 0.0354286 µM
[5] = protein concentration 0.354286 µM
[6] = protein concentration 0.02179 µM
[7] = protein concentration 0.2179 µM
[8] = protein concentration 0.02325 µM
[9] = protein concentration 0.2325 µM
[10] = protein concentration 0.0135 µM
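Note: secreted proteins added to cultured cells, EdU pulse at the end, nuclei found by Hoechst imaging, EdU status from nuclear versus surrounding ring intensity ratio, PBS as neutral control.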

Sequence | percentage of EdU-negative (MCF7; [3]) [%] | percentage of EdU-negative (MCF7; protein concentration 0.225 µM) [%] | percentage of EdU-negative (hTERT-HMEC; [3]) [%] | percentage of EdU-negative (hTERT-HMEC; protein concentration 0.225 µM) [%] | other results
MCTKTIPVLWGCFLLWNLYVSSSQTIYPGIKARITQRALDYGVQAGMKMIEQMLKEKKLPDLSGSESLEFLKVDYVNYNFSNIKISAFSFPNTSLAFVPGVGIKALTNHGTANISTDWGFESPLFQDTGGADLFLSGVYFTGIIILTRNDFGHPTLKLQDCYAQLSHAHVSFSGELSVLYNSFAEPMEKPILKNLNEMLCPIIASEVKALNANLSTLEVLTKIDNYTLLDYSLISSPEITENYLDLNLKGVFYPLENLTDPPFSPVPFVLPERSNSMLYIGIAEYFFKSASFAHFTAGVFNVTLSTEEISNHFVQNSQGLGNVLSRIAEIYILSQPFMVRIMATEPPIINLQPGNFTLDIPASIMMLTQPKNSTVETIVSMDFVASTSVGLVILGQRLVCSLSLNRFRLALPESNRSNIEVLRFENILSSILHFGVLPLANAKLQQGFPLSNPHKFLFVNSDIEVLEGFLLISTDLKYETSSKQQPSFHVWEGLNLISRQWRGKSAP [Q8NFQ6] | – | – | – | – | percentage of EdU-negative (MCF7; [1]): 25.1 ± 3.5%; percentage of EdU-negative (MCF7; [2]): 31.5 ± 2.8%; percentage of EdU-negative (hTERT-HMEC; [1]): 5.01 ± 0.62%; percentage of EdU-negative (hTERT-HMEC; [2]): 21.7 ± 0.58%
MCVGARRLGRGPCAALLLLGLGLSTVTGLHCVGDTYPSNDRCCHECRPGNGMVSRCSRSQNTVCRPCGPGFYNDVVSSKPCKPCTWCNLRSGSERKQLCTATQDTVCRCRAGTQPLDSYKPGVDCAPCPPGHFSPGDNQACKPWTNCTLAGKHTLQPASNSSDAICEDRDPPATQPQETQGPPARPITVQPTEAWPRTSQGPSTRPVEVPGGRAVAAILGLGLVLGLLGPLAILLALYLLRRDQRLPPDAHKPPGGGSFRTPIQEEQADAHSTLAKI | 24.5 ± 3.6 | 26 ± 1.2 | 5.89 ± 1 | 6.68 ± 0.33 | –
MCVTYHNGTGYCKCPEGFLGEYCQHRDPCEKNRCQNGGTCVAQAMLGKATCRCASGFTGEDCQYSTSHPCFVSRPCLNGGTCHMLSRDTYECTCQVGFTGKECQWTDACLSHPCANGSTCTTVANQFSCKCLTGFTGQKCETDVNECDIPGHCQHGGTCLNLPGSYQCQCLQGFTGQYCDSLYVPCAPSPCVNGGTCRQTGDFTFECNCLPETVRRGTELWERDREVWNGKEHDEN [Q7Z3S9] | 26 ± 0.95 | 24.5 ± 0.49 | 5.34 ± 0.17 | 5.36 ± 0.21 | –
MDFGLALLLAGLLGLLLGQSLQVKPLQVEPPEPVVAVALGASRQLTCRLACADRGASVQWRGLDTSLGAVQSDTGRSVLTVRNASLSAAGTRVCVGSCGGRTFQHTVQLLVYAFPDQLTVSPAALVPGDPEVACTAHKVTPVDPNALSFSLLVGGQELEGAQALGPEVQEEEEEPQGDEDVLFRVTERWRLPPLGTPVPPALYCQATMRLPGLELSHRQAIPVLHSPTSPEPPDTTSPESPDTTSPESPDTTSQEPPDTTSPEPPDKTSPEPAPQQGSTHTPRSPGSTRTRRPEISQAGPTQGEVIPTGSSKPAGDQLPAALWTSSAVLGLLLLALPTYHLWKRCRHLAEDDTHPPASLRLLPQVSAWAGLRGTGQVGISPS | 27.1 ± 4.2 | 26.3 ± 1.4 | 5.3 ± 0.25 | 5.85 ± 0.98 | –
MDFPCLWLGLLLPLVAALDFNYHRQEGMEAFLKTVAQNYSSVTHLHSIGKSVKGRNLWVLVVGRFPKEHRIGIPEFKYVANMHGDETVGRELLLHLIDYLVTSDGKDPEITNLINSTRIHIMPSMNPDGFEAVKKPDCYYSIGRENYNQYDLNRNFPDAFEYNNVSRQPETVAVMKWLKTETFVLSANLHGGALVASYPFDNGVQATGALYSRSLTPDDDVFQYLAHTYASRNPNMKKGDECKNKMNFPNGVTNGYSWYPLQGGMQDYNYIWAQCFEITLELSCCKYPREEKLPSFWNNNKASLIEYIKQVHLGVKGQVFDQNGNPLPNVIVEVQDRKHICPYRTNKYGEYYLLLLPGSYIINVTVPGHDPHITKVIIPEKSQNFSALKKDILLPFQGQLDSIPVSNPSCPMIPLYRNLPDHSAATKPSLFLFLVSLLHIFFK | 25.2 ± 4.8 | 26.7 ± 1.4 | 4.44 ± 0.072 | 4.97 ± 0.2 | –
MDGAMGPRGLLLCMYLVSLLILQAMPALGSATGRSKSSEKRQAVDTAVDGVFIRSLKVNCKVTSRFAHYVVTSQVVNTANEAREVAFDLEIPKTAFISDFAVTADGNAFIGDIKDKVTAWKQYRKAAISGENAGLVRASGRTMEQFTIHLTVNPQSKVTFQLTYEEVLKRNHMQYEIVIKVKPKQLVHHFEIDVDIFEPQGISKLDAQASFLPKELAAQTIKKSFSGKKGHVLFRPTVSQQQSCPTCSTSLLNGHFKVTYDVSRDKICDLLVANNHFAHFFAPQNLTNMNKNVVFVIDISGSMRGQKVKQTKEALLKILGDMQPGDYFDLVLFGTRVQSWKGSLVQASEANLQAAQDFVRGFSLDEATNLNGGLLRGIEILNQVQESLPELSNHASILIMLTDGDPTEGVTDRSQILKNVRNAIRGRFPLYNLGFGHNVDFNFLEVMSMENNGRAQRIYEDHDATQQLQGFYSQVAKPLLVDVDLQYPQDAVLALTQNHHKQYYEGSEIVVAGRIADNKQSSFKADVQAHGEGQEFSITCLVDEEEMKKLLRERGHMLENHVERLWAYLTIQELLAKRMKVDREERANLSSQALQMSLDYGFVTPLTSMSIRGMADQDGLKPTIDKPSEDSPPLEMLGPRRTFVLSALQPSPTHSSSNTQRLPDRVTGVDTDPHFIIHVPQKEDTLCFNINEEPGVILSLVQDPNTGFSVNGQLIGNKARSPGQHDGTYFGRLGIANPATDFQLEVTPQNITLNPGFGGPVFSWRDQAVLRQDGVVVTINKKRNLVVSVDDGGTFEVVLHRVWKGSSVHQDFLGFYVLDSHRMSARTHGLLGQFFHPIGFEVSDIHPGSDPTKPDATMVVRNRRLTVTRGLQKDYSKDPWHGAEVSCWFIHNNGAGLIDGAYTDYIVPDIF | 26.48 ± 0.18 | 26 ± 0.27 | 5.89 ± 0.64 | 6.12 ± 0.16 | –
MDGLPGRALGAACLLLLAAGWLGPEAWGSPTPPPTPAAPPPPPPPGSPGGSQDTCTSCGGFRRPEELGRVDGDFLEAVKRHILSRLQMRGRPNITHAVPKAAMVTALRKLHAGKVREDGRVEIPHLDGHASPGADGQERVSEIISFAETDGLASSRVRLYFFISNEGNQNLFVVQASLWLYLKLLPYVLEKGSRRKVRVKVYFQEQGHGDRWNMVEKRVDLKRSGWHTFPLTEAIQALFERGERRLNLDVQCDSCQELAVVPVFVDPGEESHRPFVVVQARLGDSRHRIRKRGLECDGRTNLCCRQQFFIDFRLIGWNDWIIAPTGYYGNYCEGSCPAYLAGVPGSASSFHTAVVNQYRMRGLNPGTVNSCCIPTKLSTMSMLYFDDEYNIVKRDVPNMIVEECGCA | – | – | – | – | percentage of EdU-negative (MCF7; [4]): 24.4 ± 0.62%; percentage of EdU-negative (MCF7; [5]): 29.05 ± 0.099%; percentage of EdU-negative (hTERT-HMEC; [4]): 5.47 ± 0.17%; percentage of EdU-negative (hTERT-HMEC; [5]): 8.73 ± 0.18%
MDGWRRMPRWGLLLLLWGSCTFGLPTDTTTFKRIFLKRMPSIRESLKERGVDMARLGPEWSQPMKRLTLGNTTSSVILTNYMDTQYYGEIGIGTPPQTFKVVFDTGSSNVWVPSSKCSRLYTACVYHKLFDASDSSSYKHNGTELTLRYSTGTVSGFLSQDIITVGGITVTQMFGEVTEMPALPFMLAEFDGVVGMGFIEQAIGRVTPIFDNIISQGVLKEDVFSFYYNRDSENSQSLGGQIVLGGSDPQHYEGNFHYINLIKTGVWQIQMKGVSVGSSTLLCEDGCLALVDTGASYISGSTSSIEKLMEALGAKKRLFDYVVKCNEGPTLPDISFHLGGKEYTLTSADYVFQESYSSKKLCTLAIHAMDIPPPTGPTWALGATFIRKFYTEFDRRNNRIGFALAR | – | – | – | – | percentage of EdU-negative (MCF7; protein concentration 0.007 µM): 27.1 ± 1.6%; percentage of EdU-negative (MCF7; [6]): 24.9 ± 1.8%; percentage of EdU-negative (MCF7; protein concentration 0.07 µM): 28.5 ± 1.1%; percentage of EdU-negative (MCF7; [7]): 23.8 ± 2.5%; percentage of EdU-negative (hTERT-HMEC; protein concentration 0.007 µM): 4.96 ± 0.18%; percentage of EdU-negative (hTERT-HMEC; [6]): 5 ± 0.54%; percentage of EdU-negative (hTERT-HMEC; protein concentration 0.07 µM): 6.37 ± 0.25%; percentage of EdU-negative (hTERT-HMEC; [7]): 5.45 ± 0.35%
MDLLQFLAFLFVLLLSGMGATGTLRTSLDPSLEIYKKMFEVKRREQLLALKNLAQLNDIHQQYKILDVMLKGLFKVLEDSRTVLTAADVLPDGPFPQDEKLKDAFSHVVENTAFFGDVVLRFPRIVHYYFDHNSNWNLLIRWGISFCNQTGVFNQGPHSPILSLMAQELGISEKDSNFQNPFKIDRTEFIPSTDPFQKALREEEKRRKKEEKRKEIRKGPRISRSQSEL [Q9H6E4] | – | – | – | – | percentage of EdU-negative (MCF7; [8]): 27.1 ± 0.79%; percentage of EdU-negative (MCF7; [9]): 26.7 ± 0.95%; percentage of EdU-negative (hTERT-HMEC; [8]): 5.552 ± 0.014%; percentage of EdU-negative (hTERT-HMEC; [9]): 6.34 ± 0.88%
MDLRDFYLLAALIACLRLDSAIAQELIYTIREELPENVPIGNIPKDLNISHINAATGTSASLVYRLVSKAGDAPLVKVSSSTGEIFTTSNRIDREKLCAGASYAEENECFFELEVVILPNDFFRLIKIKIIVKDTNDNAPMFPSPVINISIPENTLINSRFPIPSATDPDTGFNGVQHYELLNGQSVFGLDIVETPEGEKWPQLIVQQNLDREQKDTYVMKIKVEDGGTPQKSSTAILQVTVSDVNDNRPVFKEGQVEVHIPENAPVGTSVIQLHATDADIGSNAEIRYIFGAQVAPATKRLFALNNTTGLITVQRSLDREETAIHKVTVLASDGSSTPARATVTINVTDVNDNPPNIDLRYIISPINGTVYLSEKDPVNTKIALITVSDKDTDVNGKVICFIEREVPFHLKAVYDNQYLLETSSLLDYEGTKEFSFKIVASDSGKPSLNQTALVRVKLEDENDNPPIFNQPVIELSVSENNRRGLYLTTISATDEDSGKNADIVYQLGPNASFFDLDRKTGVLTASRVFDREEQERFIFTVTARDNGTPPLQSQAAVIVTVLDENDNSPKFTHNHFQFFVSENLPKYSTVGVITVTDADAGENKAVTLSILNDNDNFVLDPYSGVIKSNVSFDREQQSSYTFDVKATDGGQPPRSSTAKVTINVMDVNDNSPVVISPPSNTSFKLVPLSAIPGSVVAEVFAVDVDTGMNAELKYTIVSGNNKGLFRIDPVTGNITLEEKPAPTDVGLHRLVVNISDLGYPKSLHTLVLVFLYVNDTAGNASYIYDLIRRTMETPLDRNIGDSSQPYQNEDYLTIMIAIIAGAMVVIVVIFVTVLVRCRHASRFKAAQRSKQGAEWMSPNQENKQNKKKKRKKRKSPKSSLLNFVTIEESKPDDAVHEPINGTISLPAELEEQSIGRFDWGPAPPTTFKPNSPDLAKHYKSASPQPAFHLKPDTPVSVKKHHVIQELPLDNTFVGGCDTLSKRSSTSSDHFSASECSSQGGFKTKGPLHTRQCNSHSKSDNIPVTPQKCPSSTGFHIQENEESHYESQRRVTFHLPDGSQESCSDSGLGDHEPVGSGTLISHPLPLVQPQDEFYDQASPDKRTEADGNSDPNSDGPLGPRGLAEATEMCTQECLVLGHSDNCWMPPGLGPYQHPKSPLSTFAPQKEWVKKDKLVNGHTLTRAWKEDSNRNQFNDRKQYGSNEGHFNNGSHMTDIPLANLKSYKQAGGATESPKEHQL [Q9HC56] | 25.9 ± 2.1 | 32.9 ± 2.9 | 4.64 ± 0.43 | 13.4 ± 3.9 | –
MDLRQFLMCLSLCTAFALSKPTEKKDRVHHEPQLSDKVHNDAQSFDYDHDAFLGAEEAKTFDQLTPEESKERLGKIVSKIDGDKDGFVTVDELKDWIKFAQKRWIYEDVERQWKGHDLNEDGLVSWEEYKNATYGYVLDDPDPDDGFNYKQMMVRDERRFKMADKDGDLIATKEEFTAFLHPEEYDYMKDIVVQETMEDIDKNADGFIDLEEYIGDMYSHDGNTDEPEWVKTEREQFVEFRDKNRDGKMDKEETKDWILPSDYDHAEAEARHLVYESDQNKDGKLTKEEIVDKYDLFVGSQATDFGEALVRHDEF | – | – | – | – | percentage of EdU-negative (MCF7; [10]): 22.72 ± 0.078%; percentage of EdU-negative (MCF7; protein concentration 0.135 µM): 23.6 ± 3.3%; percentage of EdU-negative (hTERT-HMEC; [10]): 5.58 ± 1.3%; percentage of EdU-negative (hTERT-HMEC; protein concentration 0.135 µM): 7.65 ± 0.27%
